From patent US8283180B2, “Periodic acid-schiff staining with detection in the infrared range” (Amicus Therapeutics, Inc., priority 2007, dated 2012)

System: PM-12 cells
Test: PAS staining of Pompe fibroblasts with IR fluorescence detection after diastase digestion
Assay type: cell-based, human
Conditions: 20,000 cells/well; 0.1% diastase, 5 to 60 minutes; detection at 800 nm; FIG. 2
Experimental: PM-11 Pompe fibroblasts were obtained from Dr. W. J. Kleijer, Department of Cell Biology & Genetics, Erasmus University, The Netherlands. PM-12 Pompe fibroblasts were purchased from Coriell (catalog #GM03329). CRL-2076 fibroblasts (negative control) were purchased from American Type Culture Collection (Manassas, Va.). All fibroblast lines were routinely cultured at 37° C., 5% CO2, in growth medium consisting of Dulbecco's Modified […] Medium containing 15% fetal bovine serum (Hyclone, Logan, Utah), 100 U/mL penicillin; 100 μg/mL streptomycin, and 2 mM L-glutamine.
Prior to the assay, borosilicate coverslip glass bottom 96-well black plates (Nunc; catalog #164588) are coated with superfibronectin (Sigma). […] Briefly, 100 μL of 5 μg/mL superfibronectin (Sigma) is pipetted into each well and the plate is incubated at 37° C. for 2 hours. […]
Following the overnight incubation, the plate is read on a laser-based Odyssey IR scanner (Li-Cor, Inc.) at emission wavelengths of 700 nm (near-IR) or 800 nm (IR). The detector counts IR and near-IR fluorescence emissions independently or simultaneously from the samples, and reports these counts as arbitrary units. The detector scans across an entire microtiter plate, thus can read two fluorophores from any microtiter formatted sample array (96-well, 384-well, or other) within a few minutes. […]

B1: diastase: α-amylase type VI-B from porcine pancreas; breaks down glycogen, used as negative control for PAS staining (protein, UniProt P00690 16-511, looked up)
Pancreatic alpha-amylase: QYAPQTQSGRTSIVHLFEWRWVDIALECERYLGPKGFGGVQVSPPNENIVVTNPSRPWWERYQPVSYKLCTRSGNENEFRDMVTRCNNVGVRIYVDAVINHMCGSGAAAGTGTTCGSYCNPGNREFPAVPYSAWDFNDGKCKTASGGIESYNDPYQVRDCQLVGLLDLALEKDYVRSMIADYLNKLIDIGVAGFRIDASKHMWPGDIKAVLDKLHNLNTNWFPAGSRPFIFQEVIDLGGEAIQSSEYFGNGRVTEFKYGAKLGTVVRKWSGEKMSYLKNWGEGWGFMPSDRALVFVDNHDNQRGHGAGGASILTFWDARLYKVAVGFMLAHPYGFTRVMSSYRWARNFVNGQDVNDWIGPPNNNGVIKEVTINADTTCGNDWVCEHRWRQIRNMVWFRNVVDGQPFANWWANGSNQVAFGRGNRGFIVFNNDDWQLSSTLQTGLPGGTYCDVISGDKVGNSCTGIKVYVSSDGTAQFSISNSAEDPFIAIHAESKL
For B1, the “time-dependent decrease in PAS stain IR fluorescence signal” value was “about 2 fold”.
